# Experimental data reported in the nanobody polyreactivity screen of Harvey et al. (2022).
# Test: yeast display, Sf9 membrane polyspecificity reagent, FACS + sequencing; frameworks hold sequencing errors
# How it was run: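 Using colony PCR, genes from sorted yeast display clones were amplified, then sequenced on MiSeq at 2 × 250 and filtered by CDR length. The clones had been stained with 10% biotinylated, detergent-solubilized Sf9 membrane reagent for 1 hour at 4 °C and sorted by FACS into low and high (top ~1%) gates on anti-HA and streptavidin fluorescence. Polyreactivity labels come from the gate of origin.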
row,Sequence,polyreactivity (PSR sort gate)
1,QVQLVESGGGLVQAGGSLRLSCAASGSSFHTYAMGWYRQAPGKERELVAAINRRTGGTYYADSVKGRFTISRDNAKTTVYLQMNSLKPEDTAVYYCATDWFSYRGGIFDSWGQGTQVTVSS,low polyreactivity
2,QVQLVESGGGLVQAGGSLRLSCAASGSSFNGNAMGWYRQAPGKERELVAAISRKGGSTYYADSVKGRFTISRDNAKNTVYLQMNSLKPEDTAVYYCATDLTVYYSYYWMYWGQGTQVTVSS,low polyreactivity
3,QVQLVESGGGLVQAGGSLRLSCAASGSSFPVNGIGWYRQAPGKERELVAVITDSDGSTYYADSVKGRFTISRDNAKNTVYLQMNSLKPEDTAVYYCAADDYAYSYGYWLTYDYWGQGTQVTVSS,low polyreactivity
4,QVQLVESGGGLVQAGGSLRLSCAASGSSFRVYAMGWSRQAPGKERELVASISRRGGSTYYADSVKGRFTISRDNAKTTVYIQMNSLKPEDTAVYYCNVPYYSFRDVSSYYSGQGTQVTVSS,high polyreactivity
5,QVQLVESGGGLVQAGGSLRLSCAASGSSFSRYDMGWYRQAPGKERELVATITRPGRTYYADSVKGRFTISRDNATKTVYLQMNSLKPEDTAVYYCAKDAGKTYYVDGSLEYDSWGQGTQVTVSS,low polyreactivity
6,QVQLVESGGGLVQAGGSLRLSCAASGSSFTYYTMGWYRQAPAKERELVAAISWSGGRTYYADSVTGRFTISRDNAKNTVYLQMNSLKPEDTAVYYCAAGPAPGHDSWGQGTQVTESS,high polyreactivity
7,QVQLVESGGGLVQAGGSLRLSCAASGSSFVYNVMGWYRQAPGKERELVAAIRWRGGSTYADSVKGRFTISRDNAKNTVYLQMNSLKPEDTAVYYCAAGIPRYWYAGHYDYWGQGSQVTVSS,low polyreactivity
8,QVQLVESGGGLVQAGGSLRLSCAASGSSIYSYAMGWYRQEPGKERELVAAITTSGGSTYYADSVKGRFTISRDNAKNTDYLQMNSLKPEDTAVYYCNAYFIYEGGWYYKAQYDYWGQGTQVTVSS,low polyreactivity
9,QVQLVESGGGLVQAGGSLRLSCAASGSSLWENAMGWYRQAPGKERQLVATISVSGGGTYYADSVKGRFTISRDNAKNTVYLQMTSLKPEDTAVYYCTARYGNESQGWADYWGQGTQVTVSS,low polyreactivity
10,QVQLVESGGGLVQAGGSLRLSCAASGSSLYYNAMGWYRQAPGKERELVAAISWSGGSTYYADSVKGRFTISRDNAKNTVYLQMNSLKPEDTAVSYCAADQSTVLDVGSWGQGTQVTVSS,low polyreactivity
11,QVQLVESGGGLVQAGGSLRLSCAASGSSVSYYAMGWYRQAPGKERELVAAISDNGDSTYYADSVKGRFTISRDNAKNTVYLQMNSLKPEDTAVYYCDKRYRSYGKSSKRRYYYWGQGTQVTVSS,low polyreactivity
12,QVQLVESGGGLVQAGGSLRLSCAASGSTCDTNVMGWYRQAPGKERELVAAITTSSSRTYYADSVKGRFTISRDNAKNTGYLQMNSLKPEDTAVYDCAARIHGSWSFDYWGQGTQVTVSS,low polyreactivity
13,QVQLVESGGGLVQAGGSLRLSCAASGSTCERYAMGWSRQAPGKERELVAVISYRGTSTYYADSVKGRFTISRDNAKNTVYLQMNSLKAEDTAVYDCAAEPYRTVTAYRYSLYWYNYWGQGTQVTVSS,high polyreactivity
14,QVQLVESGGGLVQAGGSLRLSCAASGSTCFHYSMGWYRQAPGKERELVAAITGTGRTTYADSVKGRFTISRDNAKTTVYLQMNSLKPEDTAVYYCAADVNYYQHRLYYWGQGTQVTVSS,low polyreactivity
15,QVQLVESGGGLVQAGGSLRLSCAASGSTCTGYTMGWYRQAPGNERELVAAITYRGGSTYYADSVKGRFTISRDNAKNTVYLQKNSLKPEETAVYYCAAVPEYYEYSPYDYWGQGTQVTVSS,low polyreactivity
16,QVQLVESGGGLVQAGGSLRLSCAASGSTDRYYVMGWYRQAPGKERDLVAGISYRGGTTYYADSVKGRFTISRDNAKNTVYLQMNRLKPEDTAVYYCNAETAAAQASYDRLYVLLDYWGQGTQVTVSS,low polyreactivity
17,QVQLVESGGGLVQAGGSLRLSCAASGSTDSNAMGWYRQAPGKERELVAAISGTGSRTYYADSVKGRFTISRDNAKNTVYLQMNSLKPEDTAVYYCAAYSGYYRPRYNYWGQGTQVTVSS,high polyreactivity
18,QVQLVESGGGLVQAGGSLRLSCAASGSTFAANAMGWYRQAPGKERELVAAITSSGGSTFYADSVKGRFTISRDNAKNTVYLQMNSLKPEDTAVYYCNKDIERYVRIYDSWGQGTQVTVSS,low polyreactivity
19,QVQLVESGGGLVQAGGSLRLSCAASGSTFAAYAMGWYRQAPGKERELVAAISATGGSTYYADSVKGRFTISRDNAKNTVYLQMNRLKPEDTAVYYCAADYPSWYGYRYYYWGQGTQVTVSS,high polyreactivity
20,QVQLVESGGGLVQAGGSLRLSCAASGSTFAEYAMGWYREAPGKERELVADITWSGGSTYYADSVKGRFTISRDNAKNTVYLQMNSLKPDDTAVYYCYFWPVFYDFYLYGYWGQGTQVTVSS,low polyreactivity
21,QVQLVESGGGLVQAGGSLRLSCAASGSTFAFNAMGWYRQAPGKERELVAAIYSDGSTDYADSVKGRFSISRDNAKNTVYLQMNSLKPEDPAVYYCADDWGWRYVLPVGWFRYGYWGQGTQVTVSS,low polyreactivity
22,QVQLVESGGGLVQAGGSLRLSCAASGSTFAFNAMGWYRQAPGKERELVASISGSGSSTYYADSVKGRFTISRDNAKNTVYLQMNSMKPEVTAVYYCDARVGARVSPPRRHGRFNYWGQGTQVTVSS,high polyreactivity

row,Sequence,polyreactivity (PSR sort gate)
1,QVQLVESGGGLVQAGGSLRLSCAASGSTFAGNAMGWYRQAPGKERELVAAIDSSTGSTYYADSVKGRFTISRDNAKNTVYLQMNSLKPEDTPVYYCSREYYEGYEYWGLGTQVTVSS,low polyreactivity
2,QVQLVESGGGLVQAGGSLRLSCAASGSTFAGNGMGWYRQAPGKERELVAGIDVTGGSTYYADSVKGRFTSSRDNAKNTVYLQMNSLKPEDTAVYYCNARYVYHSSFAGFDYWGQGTQVTVSS,low polyreactivity
3,QVQLVESGGGLVQAGGSLRLSCAASGSTFAINAMGWYRQAPGKERELVAAITYSGGGTYYADSVKGRFTISRENAKNTVYLQMNSLKPEDTAVYYCYAYGRSWVFNYIGVFLYDYWGQGTQVTVSS,low polyreactivity
4,QVQLVESGGGLVQAGGSLRLSCAASGSTFAINVMGWYRQAPGKERELVAAISSVGGTNYADSVKGRFTISRDNAKNTVYLQMNSLKPEDTAVYYCATVYSSWTVRYDYWGQGTQVTVSS,low polyreactivity
5,QVQLVESGGGLVQAGGSLRLSCAASGSTFAIYAMGWYRQAHGKERELVAAIRQRAGSTYYADSVKGRFTISRDNAKNTVYLQMNSLKPEDTAVYYCATATRPISRGYWGQGTQVTVSS,low polyreactivity
6,QVQLVESGGGLVQAGGSLRLSCAASGSTFAKYAMGWYRQAPGKERELVASIRLSGGSTYYADSVKGRFTISRDNAKNTVYLQMNSLKPEDTAVYYCNKPFPYYPDGPNGYDYWGQGTQVTVSS,low polyreactivity
7,QVQLVESGGGLVQAGGSLRLSCAASGSTFAKYAMGWYRQAPGKERELVAVISWGGGSTYYADSVKGRFTISRDNAKNTVYLQMNSLKPEDTAVYYCAAVYDEYQTTHEYDYWGQGTQVTVSS,low polyreactivity
8,QVQLVESGGGLVQAGGSLRLSCAASGSTFAKYAMGWYRQAPGKESELVASIRLSGGSTYYADSVKGRFTISRDNAKNTVYVQRNSLKPEDTAVYYCNKQFATFYYGFDYSYWGQGTQVTVSS,low polyreactivity
9,QVQLVESGGGLVQAGGSLRLSCAASGSTFALNAMGWYRQAPGKERELVAAIDDSGITYYADSVKGRFTISRDNAKNTVYLQMNSLKPDDTAVYYCAKKEWKSRTHAKGDQYPDDYWGQGTQVTVSS,low polyreactivity
10,QVQLVESGGGLVQAGGSLRLSCAASGSTFALYVMGRYRQAPGKERELVAAINSVGSKYYADSVKGRFTISRDNAKNTVYLQMHSLKPEDTSVYYCAAVSTYRPGWYYRYNYWGHGTQVTVSS,high polyreactivity
11,QVQLVESGGGLVQAGGSLRLSCAASGSTFANNAMGWYRQAPGKERELVASITTDGSTNYADSVKGRFTIARDNAKNTVYLQMNSLKPEDTAVYYGAADYHTPSSFAPIELYDYWGQGTQVTVSS,low polyreactivity
12,QVQLVESGGGLVQAGGSLRLSCAASGSTFAPYAMGWYRQAPGKERELVASIRSTGSTNYADSVKGRFTISRDNAKNTVYLQMNSLKPEDTAVYYCAARYRRYQYRVKVDYYYWGQGTQVTVSA,high polyreactivity
13,QVQLVESGGGLVQAGGSLRLSCAASGSTFARYTMGWYRQAPGKERELVAAITSNGVSTYYADSVKGRFTISRDNAKNTVYLQMNSLKPEDTAVYYCAASSRSRYGRNDYWGQGTQVTVSS,low polyreactivity
14,QVQLVESGGGLVQAGGSLRLSCAASGSTFARYTMGWYRQAPGKERELVATITNRGGSTYYADSVKGRFTISRDNAKNTVYLQMNSLKPEVTAVYYCNKRYYWGGYDYWGQGTQVTVSS,high polyreactivity
15,QVQLVESGGGLVQAGGSLRLSCAASGSTFATYAMGWYRQAPGKERELVAAITSGGSTYYADSVKGRFTISRDNAKNTVYLQMNSLKPEDTAVYYCAARSYGWRRATYYKREEYWGQGTQVTVSS,high polyreactivity
16,QVQLVESGGGLVQAGGSLRLSCAASGSTFAVNVMGWYRQAPGKERELVATITYRDGRTYYADSVKGRFTISRDNAKNTVYLQMNSLKPEDTAVYYCAADDEYKQEAEMDSWGQGTLVTVSS,low polyreactivity
17,QVQLVESGGGLVQAGGSLRLSCAASGSTFAVYAMGWYRQAPGKERELVASITDGGASTYYADSVKGRFTISRDNAKNTVYLQMNSLKPEDTAVYYCAADTYPTTSEVDYWGQGTQVTVSS,low polyreactivity
18,QVQLVESGGGLVQAGGSLRLSCAASGSTFAVYSMGWYTQAPGKERELVADSSYSGGSTYYADSVKGRFTISRDNAKNTVYLQMNSLIPEDTAVYYCAADWYDWLSTYDDWGQGTQVTVSS,low polyreactivity
19,QVQLVESGGGLVQAGGSLRLSCAASGSTFAVYTMGWYRQAPGKEREMSTSYADSVKGRFTISRDNAKNTVYLQMTCLKPEDTAVYYCNRDFYEFDSNSYRFDYWGQGTQVTVSS,low polyreactivity
20,QVQLVESGGGLVQAGGSLRLSCAASGSTFAYNAMGWYRQAPGKERELVAAISKGGGSTYYADSVKGRFTISRDNAKNTVYLQMNSLKPEDTAVYYCNAYYRSPRGYNYWGQGTQVTVSS,high polyreactivity
21,QVQLVESGGGLVQAGGSLRLSCAASGSTFAYNAMGWYRQAPGKERELVAAISWSGGTTYYADSVKGRFTISRDNAKNTVYLQMNSLKPEDTAVYYCAADVYLNRRQRMYYWGQGTQVTVSS,high polyreactivity
